From patent US20210040161A1 (CALIFORNIA INSTITUTE OF TECHNOLOGY, published 2021)

Key:
[1] = target: T1, TlpA_CC R179E (G1B); assay: CD melting curve at 222 nm, purified coiled-coil domains, 3 uM in PBS
T1 construct: Purified coiled-coil domain of TlpA used for CD; The entry already holds the initiating Met, the R179E mutation (numbered on full-length TlpA), C-terminal Leu-Gly and a His6 tag; also called TlpA-G1B (R179E); R179E variant
T1 chain: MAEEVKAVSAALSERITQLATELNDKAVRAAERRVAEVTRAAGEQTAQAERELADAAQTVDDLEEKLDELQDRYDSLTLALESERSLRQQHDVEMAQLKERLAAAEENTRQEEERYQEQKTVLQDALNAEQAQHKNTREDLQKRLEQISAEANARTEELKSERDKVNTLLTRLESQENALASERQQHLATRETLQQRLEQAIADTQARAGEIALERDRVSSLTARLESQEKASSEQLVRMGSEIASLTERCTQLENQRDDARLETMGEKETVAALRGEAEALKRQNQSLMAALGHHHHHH

[2] = target: the molecule itself; assay: CuCl2 crosslinking in E. coli lysate, SDS-PAGE, anti-HA Western; full-length homodimer band

B1: TlpA_CC E180R (G1A) (designed binder)
chain: MAEEVKAVSAALSERITQLATELNDKAVRAAERRVAEVTRAAGEQTAQAERELADAAQTVDDLEEKLDELQDRYDSLTLALESERSLRQQHDVEMAQLKERLAAAEENTRQRRERYQEQKTVLQDALNAEQAQHKNTREDLQKRLEQISAEANARTEELKSERDKVNTLLTRLESQENALASERQQHLATRETLQQRLEQAIADTQARAGEIALERDRVSSLTARLESQEKASSEQLVRMGSEIASLTERCTQLENQRDDARLETMGEKETVAALRGEAEALKRQNQSLMAALGHHHHHH
notes: Purified coiled-coil domain of TlpA used for CD; The entry already holds the initiating Met, the E180R mutation (numbered on full-length TlpA), C-terminal Leu-Gly and a His6 tag; also called TlpA-G1A (E180R); E180R variant
binding result [1]: binds

B2: wild-type TlpA, full length, C-terminal HA tag (crosslinking construct) (other)
chain: MRPATYEPEQIIEAGLALQAEGRNITGFALRNQVGGGNPTRLRQIWDEYQASQSTVVTEPVAELPVEVAEEVKAVSAALSERITQLATELNDKAVRAAERRVAEVTRAAGEQTAQAERELADAAQTVDDLEEKLDELQDRYDSLTLALESERSLRQQHDVEMAQLKERLAAAEENTRQREERYQEQKTVLQDALNAEQAQHKNTREDLQKRLEQISAEANARTEELKSERDKVNTLLTRLESQENALASERQQHLATRETLQQRLEQAIADTQARAGEIALERDRVSSLTARLESQEKASSEQLVRMGSEIASLTERCTQLENQRDDARLETMGEKETVAALRGEAEALKRQNQSLMAALSGNKQTGGQNA
notes: also called wt; not shown: C-terminal HA tag
binding result [2]: binds
